In US20070166710A1, “Methods for inhibiting adipogenesis and for treating type 2 diabetes” (priority 2003, published 2007):

Key:
[1] = molecular target: T1, HA-Akt (human Akt1 fused to an N-terminal HA-tag, expressed from pCMV-HA-Akt) (human, UniProt P31749 1-480); assay: co-immunoprecipitation from transfected HEK/293 cells (anti-HA IP, Western blot for Foxa-2; the reverse anti-Foxa-2 IP also coprecipitated Akt)
T1 construct: Expressed in transfected HEK/293 or HepG2 cells; The methods also mention Akt2 for HEK/293 transfections, but pCMV-HA-Akt is defined as HA-Akt1; also called HA-Akt1; pCMV-HA-Akt-1; not shown: N-terminal HA-tag

[2] = molecular target: T1, HA-Akt (human Akt1 fused to an …); assay: co-immunoprecipitation from transfected HEK/293 cells (anti-HA IP; the reverse anti-Foxa-2 IP gave the same result)

T1 sequence (P31749 whole entry, the tested form may be a part): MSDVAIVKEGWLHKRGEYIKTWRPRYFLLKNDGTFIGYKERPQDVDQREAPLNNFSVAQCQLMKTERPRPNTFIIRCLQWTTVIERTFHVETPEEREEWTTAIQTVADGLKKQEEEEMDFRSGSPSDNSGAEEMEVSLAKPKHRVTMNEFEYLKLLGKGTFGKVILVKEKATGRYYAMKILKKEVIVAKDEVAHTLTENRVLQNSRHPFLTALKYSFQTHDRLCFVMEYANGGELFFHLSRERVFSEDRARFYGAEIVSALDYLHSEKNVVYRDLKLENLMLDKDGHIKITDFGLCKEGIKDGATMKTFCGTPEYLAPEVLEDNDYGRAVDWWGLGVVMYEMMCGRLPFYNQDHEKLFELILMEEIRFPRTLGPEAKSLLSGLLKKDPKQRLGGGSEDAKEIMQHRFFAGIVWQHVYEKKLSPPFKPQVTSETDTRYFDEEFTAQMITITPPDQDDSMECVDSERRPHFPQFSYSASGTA

binding result [1]	binding result [2]	Binder
binds	–	Foxa-2T156A (other, rat, UniProt P32182 1-458, looked up, Phosphorylation-deficient mutant; also called TI56A; Foxa-2TI56A) MLGAVKMEGHEPSDWSSYYAEPEGYSSVSNMNASLGMNGMNTYMSMSAAAMGSGSGNMSAGSMNMSSYVGAGMSPSLAGMSPGAGAMAGMSGSAGAAGVAGMGPHLSPSLSPLGGQAAGAMGGLAPYANMNSMSPMYGQAGLSRARDPKTYRRSYAHAKPPYSYISLITMAIQQSPNKMLTLSEIYQWIMDLFPFYRQNQQRWQNSIRHSLSFNDFLKVPRAPDKPGKGSFWTLHPDSGNMFENGCYLRRQKRFKCENELALKEAAGAGSGGGKKTAPGTQASQVQLGEAAGSASETPAGTESPHSSASPCQEHKRGGLSELKGTPASALSPPEPAPSPGQQQQAAAHLLGPPHHPGLPPEAHLKPEHHYAFNHPFSINNLMSSEQQHHHSHHHHQPHKMDLKTYEQVMHYPGGYGSPMPGSLAMGPVTNKAGLDASPLAADTSYYQGVYSRPIMNSS
–	no binding	Foxa-2R153K (other, rat, UniProt P32182 1-458, looked up) MLGAVKMEGHEPSDWSSYYAEPEGYSSVSNMNASLGMNGMNTYMSMSAAAMGSGSGNMSAGSMNMSSYVGAGMSPSLAGMSPGAGAMAGMSGSAGAAGVAGMGPHLSPSLSPLGGQAAGAMGGLAPYANMNSMSPMYGQAGLSRARDPKTYRKSYTHAKPPYSYISLITMAIQQSPNKMLTLSEIYQWIMDLFPFYRQNQQRWQNSIRHSLSFNDFLKVPRAPDKPGKGSFWTLHPDSGNMFENGCYLRRQKRFKCENELALKEAAGAGSGGGKKTAPGTQASQVQLGEAAGSASETPAGTESPHSSASPCQEHKRGGLSELKGTPASALSPPEPAPSPGQQQQAAAHLLGPPHHPGLPPEAHLKPEHHYAFNHPFSINNLMSSEQQHHHSHHHHQPHKMDLKTYEQVMHYPGGYGSPMPGSLAMGPVTNKAGLDASPLAADTSYYQGVYSRPIMNSS
